# T1: Rv0287 (Mycobacterium tuberculosis, UniProt O53692 1-97)
# T1 sequence: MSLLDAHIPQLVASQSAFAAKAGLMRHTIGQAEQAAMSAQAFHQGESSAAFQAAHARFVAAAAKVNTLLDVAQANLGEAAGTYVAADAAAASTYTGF
# B1: TB10.4 (natural protein)
# chain: MSQIMYNYPAMLGHAGDMAGYAGTLQSLGAEIAVEQAALQSAWQGDTGITYQAWQAQWNQAMEDLVRAYHAMSSTHEANTMAMMARDTAEAAKWGG
# notes: also called Rv0288
# Target: T1, Rv0287
# Assay: pull-down
# Settings: both partners purified
binder,measurement,value
B1,binding result,binds
